In article PMC9256704:

Biological target: PKM2 (M2 isoform of pyruvate kinase), endogenous (human (endogenous in A549 and in patients' lung cancer tissues)) (UniProt P14618)
Test: native gel or EMSA; native PAGE of cytoplasm and nucleus of cells; TRIB2 overexpression or siRNA-TRIB2

PKM2 (M2 isoform of pyruvate kinase), endogenous, P14618 1-531 (natural protein; other documents disagree on this pair), sequence (P14618 whole entry, canonical isoform): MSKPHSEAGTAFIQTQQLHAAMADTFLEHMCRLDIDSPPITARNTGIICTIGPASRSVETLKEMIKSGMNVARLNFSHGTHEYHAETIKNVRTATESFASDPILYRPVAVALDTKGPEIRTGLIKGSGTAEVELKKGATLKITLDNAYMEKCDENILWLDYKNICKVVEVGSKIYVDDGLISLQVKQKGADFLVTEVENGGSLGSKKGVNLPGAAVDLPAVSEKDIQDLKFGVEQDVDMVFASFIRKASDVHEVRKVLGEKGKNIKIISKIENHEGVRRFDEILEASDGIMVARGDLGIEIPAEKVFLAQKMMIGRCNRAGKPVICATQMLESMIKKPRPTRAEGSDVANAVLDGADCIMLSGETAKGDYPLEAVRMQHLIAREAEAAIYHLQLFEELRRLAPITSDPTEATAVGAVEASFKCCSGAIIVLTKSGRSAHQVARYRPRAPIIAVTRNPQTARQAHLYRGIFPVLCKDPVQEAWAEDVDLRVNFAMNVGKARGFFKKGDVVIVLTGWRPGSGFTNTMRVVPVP

PKM2 (M2 isoform of pyruvate kinase), endogenous, P14618 1-531 (natural protein; other documents disagree on this pair)
stoichiometry N: 2
